Measured values as given in patent US20240376189A1 (University of Pennsylvania, published 2024).

T1: human C5a (human, UniProt P01031 678-751, biotinylated in the U937/C5aR ligand blocking assay (site not stated))
T1 construct: also called human antigen; huC5a
T1 sequence: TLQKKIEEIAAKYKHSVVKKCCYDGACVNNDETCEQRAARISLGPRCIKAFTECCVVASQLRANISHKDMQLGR


Experiments:
[1] = target: T2, cynomolgus antigen (cynomolgus); experiment: SPR, scFv captured via anti-c-myc/anti-His, 60 nM cynomolgus antigen as analyte, 1:1 fit
T2 construct: also called cyno antigen; cynomolgus monkey C5a
Procedure: The activator was prepared by mixing 400 mM EDC (1-ethyl-3-(3-dimethylaminopropyl) carbodiimide) and 100 mM NHS (N-hydroxysuccinimide) (GE) immediately prior to injection. The CMS sensor chip was activated for 600 s with the mixture at a flow rate of 10 μL/min. Mixture of anti-c-myc and anti his antibodies in 10 mM NaAc (pH 4.5) was then injected to Fc1 and Fc2 of channel 1 to channel 8 for 600 seconds at a flow rate of 10 μL/min. The chip was deactivated by 1 M ethanolamine-HCl (GE) at a flow rate of 10 μL/min for 420 seconds.
The anti-C5a scFv was diluted to 0.5 μg/ml, the other samples were diluted to 2 μg/ml in running buffer 1×HBS-EP+ (0.01 M HEPES, 0.15 M NaCl, 0.003 M EDTA, 0.05% surfactant P20). […] Diluted TES buffer was injected into channel Fc1 at a flow rate of 10 μL/min for 40 s, diluted scFv was injected into channel Fc2 at a flow rate of 10 μL/min for 40 s. […] 10 mM glycine pH 1.5 as regeneration buffer was injected following every dissociation phase. The chip was regenerated with 10 mM glycine pH 1.5.
The sensorgrams for reference channel Fc1 and buffer channel were subtracted from the test sensorgrams. Data were fitted by 1:1 kinetic binding model. Molecular weight of 8.4 kDa was used to calculate the molar concentration of the cyno antigen.

[2] = target: T2, cynomolgus antigen; experiment: affinity-ranking ELISA: cynomolgus antigen coated on the plate, normalized scFv periplasmic extract in 3-fold dilutions from 100 nM, anti-c-myc-HRP, OD450
Procedure: The affinity ranking ELISA was carried out as following: scFv concentrations in PEs were measured by Quantification ELISA using purified scFv sample as a standard. Briefly, anti-His-antibody (Genscript-A00186) were coated on the plates in coating buffer PBS at pH7.4 overnight at 4° C. The next day, plates were blocked with casein in PBS at pH7.4 for 1 hour at 25° C. ScFv containing PEs were diluted 3 fold serial dilutions and then added to the plates. A purified scFv standard sample with known concentration was used as a standard. After incubation at 25° C. for 1 hour and washing 3 times with PBS-T, anti-c-myc-HRP (Bethyl-A190-104P) was added to the wells followed by incubation for 1 hour at 25° C. HRP activity was detected with TMB substrate and the reaction was quenched with 2M HCl. Plates were read at 450 nm.
The next day, plates were blocked with casein in PBS for 1 hour at 25° C. Normalized scFv containing PEs were diluted using 3 fold serial dilutions starting at 100 nM, added to the plates and incubated at 25° C. for 1 hour. After washing, anti-c-myc-HRP was added to the wells followed by incubation for 1 hour at 25° C. HRP activity was detected with TMB substrate and the reaction was quenched with 2M HCl. Plates were read at 450 nm. Data were fitted into one-site binding equation using GraphPad Prism 5 software.

[3] = target: T1, human C5a; experiment: SPR, scFv captured via anti-c-myc/anti-His, 5 nM human antigen as analyte, 1:1 fit

Row | Binder | koff [1] [s⁻¹] | EC50 (read off the curve) [2] [nM] | koff [3] [s⁻¹]
1 | 13B7 (scFv, V domains shown, Combination mutant scFv) VH: QVQLVQSGAEVKKPGSSVKVSCKASGYTFTDHIIHWMRQAPGQGLEWMGYIYPREGWTNYNENFKGRVTITADKSTSTAYMELSSLRSEDTAVYYCARERNLEYFDYWGQGTTVTVSS VL: DIVLTQSPASLAVSPGQRATITCKASQSVDYEGFNYMNWYQQKPGQPPKLLIYAASNLDSGVPARFSGSGSGTDFTLTINPVEAEDTANYYCQQSVEDPHTFGGGTKVEIK | 0.000252 | ~6 | < 1e-05
2 | 10F5 (scFv, V domains shown, Combination mutant scFv) VH: QVQLVQSGAEVKKPGSSVKVSCKASGYTFTDHIIHWMRQAPGQGLEWMGYIYPREGWTNYNENFKGRVTITADKSTSTAYMELSSLRSEDTAVYYCARERNLEYFDYWGQGTTVTVSS VL: DIVLTQSPASLAVSPGQRATITCKASQSVDYEGDNYMNWYQQKPGQPPKLLIYATSNLDSGVPARFSGSGSGTDFTLTINPVEAEDTANYYCQQSLEDPHTFGGGTKVEIK | 0.00202 | – | < 1e-05
3 | 13B9 (scFv, V domains shown, Combination mutant scFv) VH: QVQLVQSGAEVKKPGSSVKVSCKASGYTFTDHIIHWMRQAPGQGLEWMGYIYPREGWTNYNENFKGRVTITADKSTSTAYMELSSLRSEDTAVYYCARERNLEYFDYWGQGTTVTVSS VL: DIVLTQSPASLAVSPGQRATITCKASQSVDFEGFNYMNWYQQKPGQPPKLLIYAASNLDSGVPARFSGSGSGTDFTLTINPVEAEDTANYYCQQSNEDPHTFGGGTKVEIK | 0.000327 | ~10 | 2.2e-05
4 | 16C2 (scFv, V domains shown, Combination mutant scFv) VH: QVQLVQSGAEVKKPGSSVKVSCKASGYTFTDHIIHWMRQAPGQGLEWMGYIYPREGWTNYNENFKGRVTITADKSTSTAYMELSSLRSEDTAVYYCARERNLEYFDYWGQGTTVTVSS VL: DIVLTQSPASLAVSPGQRATITCKASQSVDYEGFNYMNWYQQKPGQPPKLLIYATSNLDSGVPARFSGSGSGTDFTLTINPVEAEDTANYYCQQSVEDPHTFGGGTKVEIK | 0.00176 | – | 2.58e-05
5 | 2H8E10 (scFv, V domains shown, Combination mutant scFv) VH: QVQLVQSGAEVKKPGSSVKVSCKASGYTFTDHIIHWMRQAPGQGLEWMGYIYPREGWTNYNENFKGRVTITADKSTSTAYMELSSLRSEDTAVYYCARERNLEYFDYWGQGTTVTVSS VL: DIVLTQSPASLAVSPGQRATITCKASQSVDYEGDNYMNWYQQKPGQPPKLLIYAASNLDSGVPARFSGSGSGTDFTLTINPVEAEDTANYYCQQSNEDPHTFGGGTKVEIK | 0.00258 | – | 1.82e-05
6 | 18D3 (scFv, V domains shown, Combination mutant scFv) VH: QVQLVQSGAEVKKPGSSVKVSCKASGYTFTDHIIHWMRQAPGQGLEWMGYIYPREGWTNYNENFKGRVTITADKSTSTAYMELSSLRSEDTAVYYCARERNLEYFDYWGQGTTVTVSS VL: DIVLTQSPASLAVSPGQRATITCKASQSVDYEGDNYMNWYQQKPGQPPKLLIYATSNLDSGVPARFSGSGSGTDFTLTINPVEAEDTANYYCQQSVEDPHTFGGGTKVEIK | 0.00418 | – | 2.98e-05
7 | 18F5 (scFv, V domains shown, Combination mutant scFv) VH: QVQLVQSGAEVKKPGSSVKVSCKASGYTFTDHIIHWMRQAPGQGLEWMGYIYPREGFTNYNENFKGRVTITADKSTSTAYMELSSLRSEDTAVYYCARERNLEYFDYWGQGTTVTVSS VL: DIVLTQSPASLAVSPGQRATITCKASQSVDFEGFNYMNWYQQKPGQPPKLLIYAASNLDSGVPARFSGSGSGTDFTLTINPVEAEDTANYYCQQSVEDPHTFGGGTKVEIK | 0.000319 | ~8 | 3.03e-05
8 | 8H8 (scFv, V domains shown, Combination mutant scFv) VH: QVQLVQSGAEVKKPGSSVKVSCKASGYTFTDHIIHWMRQAPGQGLEWMGYIYPREGWTNYNENFKGRVTITADKSTSTAYMELSSLRSEDTAVYYCARERNLEYFDYWGQGTTVTVSS VL: DIVLTQSPASLAVSPGQRATITCKASQSVDYEGFNYMNWYQQKPGQPPKLLIYATSNLDSGVPARFSGSGSGTDFTLTINPVEAEDTANYYCQQSLEDPHTFGGGTKVEIK | 0.000927 | – | 2.69e-05
9 | 16D10 scFv (scFv, V domains shown) VH: QVQLVQSGAEVKKPGSSVKVSCKASGYTFTDHIIHWMRQAPGQGLEWMGYIYPREGWTNYNENFKGRVTITADKSTSTAYMELSSLRSEDTAVYYCARERNLEYFDYWGQGTTVTVSS VL: DIVLTQSPASLAVSPGQRATITCKASQSVDYEGFNYMNWYQQKPGQPPKLLIYAASNLDSGVPARFSGSGSGTDFTLTINPVEAEDTANYYCQQSNEDPYTFGGGTKVEIK | 0.000465 | ~20 | 2.34e-05
10 | 11A11 (scFv, V domains shown, Combination mutant scFv) VH: QVQLVQSGAEVKKPGSSVKVSCKASGYTFTDHIIHWMRQAPGQGLEWMGYIYPREGWTNYNENFKGRVTITADKSTSTAYMELSSLRSEDTAVYYCARERNLEYFDYWGQGTTVTVSS VL: DIVLTQSPASLAVSPGQRATITCKASQSVDFEGFNYMNWYQQKPGQPPKLLIYATSNLDSGVPARFSGSGSGTDFTLTINPVEAEDTANYYCQQSVEDPHTFGGGTKVEIK | 0.000786 | – | < 1e-05
11 | 17D2 (scFv, V domains shown, Combination mutant scFv) VH: QVQLVQSGAEVKKPGSSVKVSCKASGYTFTDHIIHWMRQAPGQGLEWMGYIYPREGWTNYNENFKGRVTITADKSTSTAYMELSSLRSEDTAVYYCARERNLEYFDYWGQGTTVTVSS VL: DIVLTQSPASLAVSPGQRATITCKASQSVDFEGDNYMNWYQQKPGQPPKLLIYATSNLDSGVPARFSGSGSGTDFTLTINPVEAEDTANYYCQQSVEDPHTFGGGTKVEIK | 0.0019 | – | 1.89e-05
12 | 5G11 (scFv, V domains shown, Combination mutant scFv) VH: QVQLVQSGAEVKKPGSSVKVSCKASGYTFTDHIIHWMRQAPGQGLEWMGYIYPREGWTNYNENFKGRVTITADKSTSTAYMELSSLRSEDTAVYYCARERNLEYFDYWGQGTTVTVSS VL: DIVLTQSPASLAVSPGQRATITCKASQSVDYEGFNYMNWYQQKPGQPPKLLIYAASNLDSGVPARFSGSGSGTDFTLTINPVEAEDTANYYCQQSLEDPHTFGGGTKVEIK | 0.000279 | – | < 1e-05
13 | 16F10 (scFv, V domains shown, Combination mutant scFv) VH: QVQLVQSGAEVKKPGSSVKVSCKASGYTFTDHIIHWMRQAPGQGLEWMGYIYPREGWTNYNENFKGRVTITADKSTSTAYMELSSLRSEDTAVYYCARERNLEYFDYWGQGTTVTVSS VL: DIVLTQSPASLAVSPGQRATITCKASQSVDFEGFNYMNWYQQKPGQPPKLLIYAASNLDSGVPARFSGSGSGTDFTLTINPVEAEDTANYYCQQSVEDPHTFGGGTKVEIK | 0.000155 | ~4 | 1.14e-05
14 | 19D2 (scFv, V domains shown, Combination mutant scFv) VH: QVQLVQSGAEVKKPGSSVKVSCKASGYTFTDHIIHWMRQAPGQGLEWMGYIYPREGWTNYNENFKGRVTITADKSTSTAYMELSSLRSEDTAVYYCARERNLEYFDYWGQGTTVTVSS VL: DIVLTQSPASLAVSPGQRATITCKASQSVDFEGDNYMNWYQQKPGQPPKLLIYATSNLDSGVPARFSGSGSGTDFTLTINPVEAEDTANYYCQQSLEDPHTFGGGTKVEIK | 0.00102 | – | < 1e-05
15 | 8C1 (scFv, V domains shown, Combination mutant scFv) VH: QVQLVQSGAEVKKPGSSVKVSCKASGYTFTDHIIHWMRQAPGQGLEWMGYIYPREGWTNYNENFKGRVTITADKSTSTAYMELSSLRSEDTAVYYCARERNLEYFDYWGQGTTVTVSS VL: DIVLTQSPASLAVSPGQRATITCKASQSVDFEGFNYMNWYQQKPGQPPKLLIYAASNLDSGVPARFSGSGSGTDFTLTINPVEAEDTANYYCQQSLEDPHTFGGGTKVEIK | 0.000481 | – | < 1e-05
